{"source": "paper PMC11628620", "about": "“A core network in the SARS-CoV-2 nucleocapsid NTD mediates structural integrity and selective RNA-binding”", "key": {"[1]": {"molecular_target": "T1, SARS-CoV-2 nucleocapsid NTD WT (SARS-CoV-2 (Wuhan-Hu-1), UniProt P0DTC9 44-180)", "experiment": "MST", "settings": "protein: recombinant; tags: His6-Trx cleaved by TEV; one extra N-terminal G; label: 3'-Cy5; transiently folds as stem-loop"}, "[2]": {"molecular_target": "T1, SARS-CoV-2 nucleocapsid NTD WT", "experiment": "EMSA", "settings": "protein: recombinant; tags: His6-Trx cleaved by TEV; one extra N-terminal G; hairpin with 22 nt 3' extension"}, "[3]": {"molecular_target": "SARS-CoV-2 nucleocapsid NTD WT (SARS-CoV-2 (Wuhan-Hu-1), UniProt P0DTC9 44-180)", "experiment": "MST", "settings": "protein: recombinant; tags: His6-Trx cleaved by TEV; one extra N-terminal G; label: 3'-Cy5; hairpin"}}}
{"binder": "GGAUAAUUAAUAACUAAUUACU (ssRNA)", "note": "[Ext (3'-Cy5)]", "values": [{"measurement": "Kd", "setting": "[1]", "result": "0.334 ± 0.047", "unit": "µM"}]}
{"binder": "SL4ext (structured_RNA) RNA: GGUCUGUGUGGCUGUCACUCGGCUGCAUGCUUAGUGCACUCACGCAGUAUAAUUAAUAACUAAUUACUG", "values": [{"measurement": "binding result", "setting": "[2]", "result": "binds"}]}
{"binder": "GGGUGUGGCUGUCACUCGGCUGCAUGCUUAGUGCACUCACGCCC (structured_RNA)", "note": "[SL4 (3'-Cy5)]", "values": [{"measurement": "Kd", "setting": "[3]", "result": "14.1 ± 2.23", "unit": "µM"}]}
